Assay results published in paper PMC5581300.
Like-named read-outs stand apart in the source and are kept apart here.

Tests used:
[1] = biological target: Plasma Membrane Calcium ATPase 4 (mouse (endogenous in sperm)) (UniProt Q6Q477); experiment: FRET or BRET
[2] = biological target: Plasma Membrane Calcium ATPase 4 (mouse (endogenous in sperm)) (UniProt Q6Q477); experiment: FRET or BRET; remark: listed apart in the source

Chain of UniProt Q6Q477 (Q6Q477 whole entry): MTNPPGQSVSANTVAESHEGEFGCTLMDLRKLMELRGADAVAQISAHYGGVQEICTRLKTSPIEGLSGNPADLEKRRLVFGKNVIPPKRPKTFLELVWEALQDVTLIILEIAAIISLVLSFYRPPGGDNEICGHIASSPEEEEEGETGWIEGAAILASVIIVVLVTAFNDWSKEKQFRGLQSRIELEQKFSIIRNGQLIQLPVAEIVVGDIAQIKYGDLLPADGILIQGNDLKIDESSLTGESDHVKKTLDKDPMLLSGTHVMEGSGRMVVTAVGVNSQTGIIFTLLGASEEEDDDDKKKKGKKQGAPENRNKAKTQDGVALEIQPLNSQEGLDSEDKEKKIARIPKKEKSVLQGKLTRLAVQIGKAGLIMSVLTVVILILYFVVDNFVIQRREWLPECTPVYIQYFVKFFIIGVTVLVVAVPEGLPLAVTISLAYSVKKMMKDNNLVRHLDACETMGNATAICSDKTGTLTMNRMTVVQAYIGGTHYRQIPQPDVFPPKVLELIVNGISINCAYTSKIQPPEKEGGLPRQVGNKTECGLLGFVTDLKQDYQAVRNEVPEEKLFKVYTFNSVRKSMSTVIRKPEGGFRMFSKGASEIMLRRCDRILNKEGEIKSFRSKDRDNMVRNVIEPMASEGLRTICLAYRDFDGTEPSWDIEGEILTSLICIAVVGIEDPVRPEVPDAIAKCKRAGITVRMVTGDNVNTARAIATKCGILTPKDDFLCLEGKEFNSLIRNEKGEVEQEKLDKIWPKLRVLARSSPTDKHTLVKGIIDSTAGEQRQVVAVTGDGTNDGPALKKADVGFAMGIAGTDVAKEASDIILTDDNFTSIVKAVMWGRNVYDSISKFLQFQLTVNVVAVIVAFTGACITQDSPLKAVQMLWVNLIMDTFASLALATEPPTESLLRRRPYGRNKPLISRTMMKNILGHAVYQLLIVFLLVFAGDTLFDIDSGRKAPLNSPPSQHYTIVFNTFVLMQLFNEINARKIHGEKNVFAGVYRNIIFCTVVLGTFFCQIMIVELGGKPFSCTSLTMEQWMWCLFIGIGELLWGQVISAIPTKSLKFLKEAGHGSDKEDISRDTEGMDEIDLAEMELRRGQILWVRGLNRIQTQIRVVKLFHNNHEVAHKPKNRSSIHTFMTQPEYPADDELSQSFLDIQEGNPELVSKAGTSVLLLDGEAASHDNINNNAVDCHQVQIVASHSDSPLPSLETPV

neuronal nitric oxide synthase (from UniProt Q9Z0J4 1-1429) (enzyme)
FRET efficiency [1]: 6%
FRET efficiency [2]: 24%
